Assay results: the RNAGym collection of RNA variant scans (doi:10.1073/pnas.2313332121)

B1: TPR t1 (parent)
chain: GACCAAUCUGCCCUCAGAGCUCGAGAACAUCUUCGGAUGCAGAGGAGGCAGGCUUCGGUGGCGCGAUAGCGCCAACGUCCUCAACCUCCAAUGCAUCCCACCACAUGAUGAUGCCUGAAGAGCCUUGGUUUUUUG

Variants of: B1
Test: polymerase ribozyme fitness, log enrichment relative to wild type (log ratio); higher = more active; in vitro selection for triplet polymerase activity
Outline: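 Fitness is a logarithmic measure of how a genotype enriched relative to the wild type, with replicate averages weighted by inverse variance. The logarithm uses base 2, and enrichment came from Illumina sequencing of input and output libraries. Those libraries were PCR-built, transcribed mutants of each subunit of a heterodimeric triplet polymerase ribozyme, passed through one triplicate in vitro selection round that included frozen incubation at −7 °C, gel excision of extended constructs and streptavidin-bead capture. Genotypes were kept only if they had ≥10 input reads and ≥1 read per output.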
In the case of GACCCAUCUGCCCUCAGAGCUCGAGAACAUCUUCGGAUGCAGAGGAGGCAGGCUUGGGUGGCGCGAUAGCGCCAACGUCUUCAACCUCCAAUGCAUCCCACCACAUGAUGAUGCCUGAAGAGCCUUGGUUUUUUG [A5C C56G C80U], the “polymerase ribozyme fitness (log ratio)” value is reported as -1.77. With GACCCAUCUGCCCUCAGAGCUCGAGAACAUCUUCGGAUGCAGAGGAGGCAGGCUUGGGUGGCGCGAUAGCGCCAACGUCCUCAACCUCCAAUGCAUCACACCACAUGAUGAUGCCUGAAGCGCCUUGGUUUUUUG [A5C C56G C98A A121C] the “polymerase ribozyme fitness (log ratio)” value was -3.33. With GACCCAUCUGCCCUCAGAGCUCGAGAACAUCUUCGGAUGCAGAGGAGGCAGGCUUCGGUGGCGCGAUAGGGCCAACGUCCUCAACCUCCAAUGCAUCCCACCACAUGAUGAUGCCUGAAGAGCCUUGGUUUUUUG [A5C C70G] the “polymerase ribozyme fitness (log ratio)” value was -2.95. In the case of GACCCAUCUGCCCUCAGAGCUCGAGAACAUCUUCGGAUGCAGAGGAGGCAGGCUUCGGUGGCGCGAUAGCGCCAACGUCCUAAACCUCCAAUGCAUCCCACCACAUGAUGAUGCCUGAAGAGCCUGGGUUUUUUG [A5C C82A U126G], the “polymerase ribozyme fitness (log ratio)” value is reported as -0.956. With GACCCAUCUGCCCUCAGAGCUCGAGAACAUCUUCGGAUGCAGAGGAGGCAGGCUUCGGUGGCGCGAUAGCGCCAACGUCCUGAACCUCCAAGGCAUCCCACCACAUGAUGAUGCCUGAAGAGCCUUGGUGUUUUG [A5C C82G U92G U130G] the “polymerase ribozyme fitness (log ratio)” value was -4.87. In the case of GACCCAUCUGCCCUCAGAGCUCGAGAACAUCUUCGGAUGCAGAGGAGGCAGGCUUCGGUGGCGCGAUAGCGCCAACGUCCUCAACCUGCAAUGCAUCCCACCACAUGAUGAUGCCUGAAGAGCCUUAGUUUUUUG [A5C C88G G127A], the “polymerase ribozyme fitness (log ratio)” value is reported as -2.6. For GACCCAUCUGCCCUCAGAGCUCGAGAACAUCUUCGGAUGCAGAGGAGGCAGGCUUCGGUGGCGCGAUAGCGCCAACGUCCUCAACCUCAAAUGCAUCCCACCACAUGAUGCUGCCUGAAGAGCCUUGGUUUUUUG [A5C C89A A111C], the “polymerase ribozyme fitness (log ratio)” value was -3.6. In the case of GACCCAUCUGCCCUCAGAGCUCGAGAACAUCUUCGGAUGCAGAGGAGGCAGGCUUCGGUGGCGCGAUAGCGCCAACGUCCUCAACCUCGAAUGCAUCCCACCACAUGAUGAUGGCUGAAGAGCCUCGGUUAUUUG [A5C C89G C114G U126C U131A], the “polymerase ribozyme fitness (log ratio)” value is reported as -5.03. In the case of GACCCAUCUGCCCUCAGAGCUCGAGAACAUCUUCGGAUGCAGAGGAGGCAGGCUUCGGUGGCGCGAUAGCGCCAACGUCCUCAACCUCCAAUGCAUCCCACCAUAUGAUGAUGCCUGAAGAGCCUUGGUUUUUUG [A5C C104U], the “polymerase ribozyme fitness (log ratio)” value is reported as -1.05. With GACCCAUCUGCCCUCAGAGCUCGAGAACAUCUUCGGAUGCAGAGGAGGCAGGCUUCGGUGGCGCGAUAGCGCCAACGUCCUCAACCUCCAAUGCAUCCCACCACAUGAUGAUGCCUGAAGAGGCUUGGUUUUUUG [A5C C123G] the “polymerase ribozyme fitness (log ratio)” value was 1.35. For GACCCAUCUGCCCUCAGAGCUCGAGAACAUCUUCGGAUGCAGAGGAGGCAGGCUUCGGUGGCGCGAUAGCGCCAACGUCCUCAACCUCCAAUGCAUCCCACCACAUGAUGAUGCCUGAAGAGCAUAGGUUAUUUG [A5C C124A U126A U131A], the “polymerase ribozyme fitness (log ratio)” value was 0.939. In the case of GACCCAUCUACCCUCAGAGCUCGAGAACAUCUUCGGAUGCAGAGGAGGCAGGCUUCGGUGGCGCGAUAGCGCCAACGUCCUCAACAUCCAAUGCAUCCCACCACAUGAUGAUGCCUGAAGAGCCUUGGUUUUUUG [A5C G10A C86A], the “polymerase ribozyme fitness (log ratio)” value is reported as -0.155. In the case of GACCCAUCUGCCCUCAGAGCUCGAGAACAUCUUCGGAUGCAUAGGAGCCAGGCUUCGGUGGCGCGAUAUCGCCAACGUCCUCAACCUCCAAUGCAUCCCACCACAUGAUGAUGCCUGAAGAGCCUUGGUUUUUUG [A5C G42U G48C G69U], the “polymerase ribozyme fitness (log ratio)” value is reported as -0.971. With GACCCAUCUGCCCUCAGAGCUCGAGAACAUCUUCGGAUGCAGAGGAAGCAGGCUUCGGAGGCGCGAUAGCGCCAACGUCCUCAACCUCCAAUGCAUCCCCCCACACGAUGAUGCCUGAAGAGCCUUGGUUUUUUG [A5C G47A U59A A100C U106C] the “polymerase ribozyme fitness (log ratio)” value was -4.2. With GACCCAUCUGCCCUCAGAGCUCGAGAACAUCUUCGGAUGCAGAGGAGCCAGGCUUCGGUGGCGCGAUAGCGCCAACGACCUCAACCUCCAAUGCAUCCCACCACAUGAUGAUGCAUGAAGAGCCUUGGUUUUUUG [A5C G48C U78A C115A] the “polymerase ribozyme fitness (log ratio)” value was -2.4. With GACCCAUCUGCCCUCAGAGCUCGAGAACAUCUUCGGAUGCAGAGGAGGCACGCUUCGGUGGCGCGAUAGCGCCAACAUCGUCAACCUCCAAUGCAUCCCACCACAUGAUGAUGCCUGAAGAGCCUUGGUUUUUUG [A5C G51C G77A C80G] the “polymerase ribozyme fitness (log ratio)” value was -0.996. For GACCCAUCUGCCCUCAGAGCUCGAGAACAUCUUCGGAUGCAGAGGAGGCAGACUUCGGUGGCGCGAUAGCGCCAACGUCCUCAACCUCCAAUGCAUCCCACCACAUGAUGAUGCCUGAAGAGCCUUGGUUUUUUG [A5C G52A], the “polymerase ribozyme fitness (log ratio)” value was -0.884. In the case of GACCCAUCUGCCCUCAGAGCUCGAGAACAUCUUCGGAUGCAGAGGAGGCAGUCUUCGGUGGCGCGAUAGCGCCAACGUCCUCAACCUCCAAUGCAUCCCACCACAUGAUGAUGCCUGAAGAGCCUUGGUUUUUUG [A5C G52U], the “polymerase ribozyme fitness (log ratio)” value is reported as -2.8. In the case of GACCCAUCUGCCCUCAGAGCUCGAGAACAUCUUCGGAUGCAGAGGAGGCAGGCUUCGAUCGCGCGAUAGCGCCAACGUCCUCAACCUCCAAUGCAUCCCACCACAUGAUGAUGCCUGAAGAGCCUUGGUUUUUUG [A5C G58A G60C], the “polymerase ribozyme fitness (log ratio)” value is reported as -0.634. In the case of GACCCAUCUGCCCUCAGAGCUCGAGAACAUCUUCGGAUGCAGAGGAGGCAGGCUUCGGUGGCACGAUAGCGCCAACGUUCUCAACCUCCAAUGCAUCCCACCACAUGAUGAUGCCUGAAGAGCCUUGGUUUUUUG [A5C G63A C79U], the “polymerase ribozyme fitness (log ratio)” value is reported as -1.41. For GACCCAUCUGCCCUCAGAGCUCGAGAACAUCUUCGGAUGCAGAGGAGGCAGGCUUCGGUGGCACGAUAGCGCCAACGUCCACAACCUCCAAUGCAUCCCACCACAUGAUGAUGCCUGAAGAGCCUUGGUUUUUUG [A5C G63A U81A], the “polymerase ribozyme fitness (log ratio)” value was -2.31.
